pKd: −log10 of the molar value.
Molecular target: wild-type pneumolysin (PLY) (Streptococcus pneumoniae) (UniProt Q04IN8)
Assay: ELISA

Sequence of UniProt Q04IN8 (Q04IN8 whole entry): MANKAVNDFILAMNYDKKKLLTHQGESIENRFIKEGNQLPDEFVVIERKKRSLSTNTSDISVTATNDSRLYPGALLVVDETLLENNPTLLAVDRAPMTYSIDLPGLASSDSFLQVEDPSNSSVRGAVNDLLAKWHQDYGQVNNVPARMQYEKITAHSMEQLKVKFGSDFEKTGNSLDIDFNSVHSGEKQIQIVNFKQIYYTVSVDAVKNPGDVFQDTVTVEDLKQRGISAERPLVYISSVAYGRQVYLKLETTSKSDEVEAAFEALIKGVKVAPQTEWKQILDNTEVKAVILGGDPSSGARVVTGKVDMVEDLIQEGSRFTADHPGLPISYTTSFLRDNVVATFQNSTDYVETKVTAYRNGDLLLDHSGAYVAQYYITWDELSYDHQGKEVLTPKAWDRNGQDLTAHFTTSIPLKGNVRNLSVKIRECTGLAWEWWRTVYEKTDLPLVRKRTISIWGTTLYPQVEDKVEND

G-actin (non-muscle actin isolated from human platelets) (from UniProt P60709 1-375) (natural protein)
pKd: 6.72 to 6.77
